Reference: paper PMC5416842, “The ribosome biogenesis factor yUtp23/hUTP23 coordinates key interactions in the yeast and human pre-40S particle and hUTP23 contains an essential PIN domain” (Nucleic Acids Research, 2017)

B1: protein-A-His-tagged yUtp23 (natural protein, S. cerevisiae, UniProt Q12339 1-254, looked up)
chain: MRQKRAKSYRKQLLVYSHTFKFREPYQVLVDNQLVLECNNSNFNLPSGLKRTLQADVKVMITQCCIQALYETRNDGAINLAKQFERRRCNHSFKDPKSPAECIESVVNISGANKHRYVVASQDIDLRRKLRTVPGVPLIHLTRSVMVMEPLSTASAKASKITEEQKLYKGLNDPNIEKLQESGDGSGKESITKKRKLGPKAPNPLSVKKKKKVNSPSDEVKDKEDTSKEKKKRRRRKHKSNTNVPVSNGTTAAQ
notes: yUtp23, S. cerevisiae; open reading frame amplified from yeast genomic DNA
B5: GST-tagged human hUTP23 (natural protein, UniProt Q9BRU9 1-249, looked up)
chain: MKITRQKHAKKHLGFFRNNFGVREPYQILLDGTFCQAALRGRIQLREQLPRYLMGETQLCTTRCVLKELETLGKDLYGAKLIAQKCQVRNCPHFKNAVSGSECLLSMVEEGNPHHYFVATQDQNLSVKVKKKPGVPLMFIIQNTMVLDKPSPKTIAFVKAVESGQLVSVHEKESIKHLKEEQGLVKNTEQSRRKKRKKISGPNPLSCLKKKKKAPDTQSSASEKKRKRKRIRNRSNPKVLSEKQNAEGE
notes: hUTP23, human; open reading frame amplified from human cDNA; also called GST-hUTP23

Legend:
[1] = target: T1, GST-yUtp23 WT (Saccharomyces cerevisiae) (UniProt Q12339); experiment: competition; conditions: EMSA: 10 mM Tris/HCl pH 7.6, 75 mM NaCl, 2 mM DTT, 100 ng/ul BSA, 0.8 U/ul RNasin, 4.5% glycerol, 0.05% Tween20, 500 ng/ul E. coli tRNA; 10 min 30 C then 10 min
T1 sequence: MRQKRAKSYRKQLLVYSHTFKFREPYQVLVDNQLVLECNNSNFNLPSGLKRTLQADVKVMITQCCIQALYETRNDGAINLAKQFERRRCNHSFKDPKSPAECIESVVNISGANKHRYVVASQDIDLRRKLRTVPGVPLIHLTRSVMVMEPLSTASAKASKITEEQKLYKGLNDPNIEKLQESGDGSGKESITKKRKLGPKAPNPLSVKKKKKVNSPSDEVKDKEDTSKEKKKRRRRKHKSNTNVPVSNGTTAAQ

[2] = target: T1, GST-yUtp23 WT (Saccharomyces cerevisiae); experiment: EMSA; conditions: EMSA: 10 mM Tris/HCl pH 7.6, 75 mM NaCl, 2 mM DTT, 100 ng/ul BSA, 0.8 U/ul RNasin, 4.5% glycerol, 0.05% Tween20, 500 ng/ul E. coli tRNA; 10 min 30 C then 10 min
[3] = test system: GST-yUtp23 WT (Saccharomyces cerevisiae); experiment: EMSA; conditions: 100-1000 nM protein; EMSA: 10 mM Tris/HCl pH 7.6, 75 mM NaCl, 2 mM DTT, 100 ng/ul BSA, 0.8 U/ul RNasin, 4.5% glycerol, 0.05% Tween20, 500 ng/ul E. coli tRNA; 10 min 30 C then 10 min
GST-tagged yeast yRrp7 = target: T2, GST-tagged yeast yRrp7 (S. cerevisiae, UniProt P25368 1-297); experiment: pull-down; GST-tagged yeast bait proteins immobilised on glutathione sepharose (pre-blocked with BSA), incubated with recombinant protein-A-His-tagged yUtp23 for 1 h at 4°C in Buffer NB (20 mM Tris/HCl pH 7.6, 150 mM NaCl, 8.7% glycerol, 0.1% Tween20); five washes; SDS-PAGE, Coomassie staining; conditions: both partners purified
T2 construct: yRrp7, S. cerevisiae; open reading frame amplified from yeast genomic DNA; also called GST-yRrp7
T2 sequence (looked up): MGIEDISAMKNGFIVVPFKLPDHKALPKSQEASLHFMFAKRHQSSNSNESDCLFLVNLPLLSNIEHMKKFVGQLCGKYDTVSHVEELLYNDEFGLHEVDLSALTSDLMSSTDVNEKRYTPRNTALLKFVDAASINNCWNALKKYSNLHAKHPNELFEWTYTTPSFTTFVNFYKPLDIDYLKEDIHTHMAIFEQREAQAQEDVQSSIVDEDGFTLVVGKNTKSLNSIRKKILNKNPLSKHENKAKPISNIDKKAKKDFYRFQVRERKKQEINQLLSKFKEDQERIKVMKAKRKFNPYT

GST-tagged yeast yUtp23 = target: T3, GST-tagged yeast yUtp23 (S. cerevisiae, UniProt Q12339 1-254); experiment: as above; conditions: both partners purified
T3 construct: yUtp23, S. cerevisiae; open reading frame amplified from yeast genomic DNA; also called GST-yUtp23
T3 sequence (looked up): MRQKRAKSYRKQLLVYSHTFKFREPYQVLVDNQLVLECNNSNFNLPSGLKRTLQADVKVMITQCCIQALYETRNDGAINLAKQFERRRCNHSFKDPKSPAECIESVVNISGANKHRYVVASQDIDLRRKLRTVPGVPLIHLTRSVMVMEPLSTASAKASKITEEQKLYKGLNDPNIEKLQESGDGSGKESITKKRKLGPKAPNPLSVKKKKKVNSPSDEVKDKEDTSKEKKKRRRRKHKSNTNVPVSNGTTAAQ

GST-tagged human hUTP23 = target: B5; experiment: pull-down; GST-tagged hUTP23 immobilised on glutathione sepharose (pre-blocked with BSA), incubated with N-terminally His-tagged recombinant human proteins for 1 h at 4°C in Buffer NB (20 mM Tris/HCl pH 7.6, 150 mM NaCl, 8.7% glycerol, 0.1% Tween20); five washes; SDS-PAGE, immunoblotting with anti-His and anti-GST antibodies; conditions: both partners purified
[4] = target: B1; experiment: pull-down; GST-tagged yeast bait proteins immobilised on glutathione sepharose (pre-blocked with BSA), incubated with recombinant protein-A-His-tagged yUtp23 for 1 h at 4°C in Buffer NB (20 mM Tris/HCl pH 7.6, 150 mM NaCl, 8.7% glycerol, 0.1% Tween20); five washes; SDS-PAGE, Coomassie staining; conditions: both partners purified
[5] = target: T4, N-terminally His-tagged hRRP7 (human, UniProt Q9Y3A4 1-280); experiment: pull-down; GST-tagged hUTP23 immobilised on glutathione sepharose (pre-blocked with BSA), incubated with N-terminally His-tagged recombinant human proteins for 1 h at 4°C in Buffer NB (20 mM Tris/HCl pH 7.6, 150 mM NaCl, 8.7% glycerol, 0.1% Tween20); five washes; SDS-PAGE, immunoblotting with anti-His and anti-GST antibodies; conditions: both partners purified
T4 construct: hRRP7, human; open reading frame amplified from human cDNA; The legend says that C-terminally truncated forms of the His-tagged hRRP7 protein were also present in the preparation; not shown: His tag, N-terminal, kept
T4 sequence (looked up): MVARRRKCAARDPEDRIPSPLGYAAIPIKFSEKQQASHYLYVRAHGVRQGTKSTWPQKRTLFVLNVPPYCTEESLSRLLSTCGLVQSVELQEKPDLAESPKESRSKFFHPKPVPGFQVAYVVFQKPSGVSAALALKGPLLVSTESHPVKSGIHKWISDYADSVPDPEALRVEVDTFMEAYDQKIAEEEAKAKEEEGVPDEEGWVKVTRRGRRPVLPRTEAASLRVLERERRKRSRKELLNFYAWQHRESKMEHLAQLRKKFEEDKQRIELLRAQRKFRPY

**Q.** Which binding [1] does the source give for “GGCGUAUUGCUCGAAUAUAUUAGCAUGGAAUAAUAGAAUAGGACGUUUGGUUCUAUUUUGUUGGUUUCUAGGACCAUCGUAAUGAUUAAUAGGGACGGUCGGGGGCAUCAGUAUUCAAUUGUCAGAGGUGAAAUUCUUGGAUUUAUUGAAGACUAACUACUGCGAAAGCAUUUGCCAAGGACGUUUUCA [18S rRNA ES6 fragment (nt 775-963, RNA A)]” here?
**A.** binds

**Q.** “GGCCGCAGUAUAUUCCUAAACACUAUGAAAUGACCCUAGUUGGUCCAUGAUCAUUUGGGUAAAACCAUACUGCAGACAUCU [snR30 3' HP (nt 531-606)]” was tested. Which binding [2] did it give?
**A.** no binding

**Q.** For “GGGUAGGACGCAUGAUCUUGAGCUCUUUUCCUAUACUUUGUCCUAUGGCCAGCUUUCUCCUUAUUACGAAGAGAUUGCGGGAUGUGGGUGCAGAGUGGGAAAAUCUGAGUUCGGUCAUCUUUGUUGUUCGUCCUACCGCAGUAUAUUCCUAAACACUAUGAAAUGACCCUAGUUGGUCCAUGAUCAUUUGGGUAAAACCAUACUGCAGACAUCU [snR30 IH + 3' HP (nt 398-606)]”, which binding [2] is on record?
**A.** binds more weakly

**Q.** With “GGGUAGGACGCAUGAUCUUGAGCUCUUUUCCUAUACUUUGUCCUAUGGCCAGCUUUCUCCUUAUUACGAAGAGAUUGCGGGAUGUGGGUGCAGAGUGGGAAAAUCUGAGUUCGGUCAUCUUUGUUGUUCGUCCUAC [snR30 IH (nt 398-531)]” as the molecule, how does the binding [2] read?
**A.** no binding

**Q.** Which Kd [3] does the source give for snR30 full length (nt 1-606) here?
**A.** 300 nM

**Q.** Does B1 bind (GST-tagged yeast yRrp7)?
**A.** binds

**Q.** Does B1 bind (GST-tagged yeast yUtp23)?
**A.** binds

B2: N-terminally His-tagged hNHP2 (natural protein, human, UniProt Q9NX24 1-153, looked up)
chain: MTKIKADPDGPEAQAEACSGERTYQELLVNQNPIAQPLASRRLTRKLYKCIKKAVKQKQIRRGVKEVQKFVNKGEKGIMVLAGDTLPIEVYCHLPVMCEDRNLPYVYIPSKTDLGAAAGSKRPTCVIMVKPHEEYQEAYDECLEEVQSLPLPL
notes: core box H/ACA protein hNHP2, human; open reading frame amplified from human cDNA; not shown: His tag, N-terminal, kept
**Q.** Does B2 bind (GST-tagged human hUTP23)?
**A.** binds

B3: GST-tagged yeast yUtp24 (natural protein, S. cerevisiae, UniProt Q05498 1-189, looked up)
chain: MGKAKKTRKFGLVKRTLNTKKDQRLKKNQENIKTKEDPELTRNIPQVSSALFFQYNQAIKPPYQVLIDTNFINFSIQKKVDIVRGMMDCLLAKCNPLITDCVMAELEKLGPKYRIALKLARDPRIKRLSCSHKGTYADDCLVHRVLQHKCYIVATNDAGLKQRIRKIPGIPLMSVGGHAYVIEKLPDVF
notes: yUtp24/Fcf1, S. cerevisiae; open reading frame amplified from yeast genomic DNA; also called Fcf1; yUtp24(Fcf1)
**Q.** Does B3 bind [4]?
**A.** binds

B4: N-terminally His-tagged hUTP24 (natural protein, human, UniProt Q9Y324 1-198, looked up)
chain: MGKQKKTRKYATMKRMLSLRDQRLKEKDRLKPKKKEKKDPSALKEREVPQHPSCLFFQYNTQLGPPYHILVDTNFINFSIKAKLDLVQSMMDCLYAKCIPCITDCVMAEIEKLGQKYRVALRIAKDPRFERLPCTHKGTYADDCLVQRVTQHKCYIVATVDRDLKRRIRKIPGVPIMYISNHRYNIERMPDDYGAPRF
notes: hUTP24 (human homologue of yUtp24/Fcf1); open reading frame amplified from human cDNA; not shown: His tag, N-terminal, kept
**Q.** Does B4 bind (GST-tagged human hUTP23)?
**A.** binds

**Q.** Does B5 bind [5]?
**A.** binds
